The series “single molecule pulldown” concerns the molecule itself. Nature of the series: single molecule pulldown.
The series “cryo-EM structure” deals with the molecule itself. Nature of the series: cryo-EM structure.

As usually defined, the stoichiometry N is a count of units in the complex or per binding partner.

B1: C. elegans TMC-1 with C-terminal 3C site-mVenus-3xFLAG (tmc-1::mVenus knock-in) (natural protein, UniProt D3KZG3 1-1285, looked up)
chain: MQEAARRASLRKEHTPTNEKFGDLSKQDSLGERASSKLTLDDELYDILYAFGETDAFINKGDKQRETDEDGNPLTRQALLERIRQKKEVIGKLRCQAWSMTRKRRTLKLAQKYLEQHESKVSRSHLYMEEMRKRARLMKRSFSNFKTYLIPWESKIKRIESHFGSVVSSYFTFLRWIVFVNIMITLIALVFVVLPETLADSVANEGRFNRTKTRKQIPANERVHADELAVVWHYDGYLRYSPLFYGYYSDDPFLGNKIKYALPLAYFMVTLTIFAYSFFAILRKMAANARMSKLSGSKAEQYIFNWKLFTGWDYTIGNSETASNTVMAVVIKLRESIADIKKDAHGKFRLLQFSLRVFANIIICAMLGFSIYCIIFAVQKSQVQDDGNLFTKNQVPSVVSTITHVFPMIFDLIGKMENYHPRTALRAHLGRVLILYTVNYITLIFALFEKMTALRDRVNSTSTSSSHRTKRQQGGWNPNMQRPPPYASRAEVRQMSDFLAANTRRFQTVSQRTTRSVTTPFTVAPQFGPFNVNNPNAVFHNGTHSTSFESQILGPKALPIFTPPPRKYPGFTPGNVGQQFGGPDFPRNQVYTKSTPLPRVRTKPPWVYTTTHPPLVQNRAMTTTMSKSAKKGNSKNLDDDILLSNETIQMSEAALRRNHDGHNNDICWETIIGQEIVKLVTMDLIFTILSILVIDLFRGLWIKYCSSWWCWDIETTFPEYGEFKVAENVLHIINNQGMIWLGLFFAPLLPAINNIKLIILMYIRGWAVMTCNVPAREIFRASRSSNFYLGILLIWLLLCTLPVGFVIASMSPSRSCGPFARYQHFYTVVTREIEKRVDQTVLSYIRHIASPGVVIPIILFLILIIYFLFSLVRGLREANTDLQAQLVHERTEEKKKIFELAGGKKNKFEKDRDKKRSNDYIPLIEQRRREPWRQYHEMEADHALASDSSEESDINEDEDDERQPLTAYPLRAIETPPETLQVTAFHPSLGSLIENREMEDEESASGDQLPMIHKSVSFQGPSHMQMRQSISTESCSQISRSAIQVATPEEIRALLRPYLEAKYGIPYQHGIKSFPIDVHTPPNNTPSRRSSKYNSFVSLYEHTRDDHKNFVASTIKETDEDPGKSDKKQTSSKDVAPDFMPWPSADEARALREKMKSKTPLMLTKTTVEEKPKGGKSSESEFRPPVPIHRKYNIQTTEEENEEEETDSAPESSKKRFRISVSPTKTIAPASASRAQHKIVSQASSSSSIPHGRQPDPNKKASLVLPPLRAPRVQFDEDDSPRQID
Take B1: in “single molecule pulldown”, the “stoichiometry N” value came out at 2.

B2: C. elegans TMC-1 (pore-forming subunit of the native TMC-1 complex), after removal of mVenus-3xFLAG by 3C protease (natural protein, UniProt D3KZG3 1-1285, looked up)
chain: MQEAARRASLRKEHTPTNEKFGDLSKQDSLGERASSKLTLDDELYDILYAFGETDAFINKGDKQRETDEDGNPLTRQALLERIRQKKEVIGKLRCQAWSMTRKRRTLKLAQKYLEQHESKVSRSHLYMEEMRKRARLMKRSFSNFKTYLIPWESKIKRIESHFGSVVSSYFTFLRWIVFVNIMITLIALVFVVLPETLADSVANEGRFNRTKTRKQIPANERVHADELAVVWHYDGYLRYSPLFYGYYSDDPFLGNKIKYALPLAYFMVTLTIFAYSFFAILRKMAANARMSKLSGSKAEQYIFNWKLFTGWDYTIGNSETASNTVMAVVIKLRESIADIKKDAHGKFRLLQFSLRVFANIIICAMLGFSIYCIIFAVQKSQVQDDGNLFTKNQVPSVVSTITHVFPMIFDLIGKMENYHPRTALRAHLGRVLILYTVNYITLIFALFEKMTALRDRVNSTSTSSSHRTKRQQGGWNPNMQRPPPYASRAEVRQMSDFLAANTRRFQTVSQRTTRSVTTPFTVAPQFGPFNVNNPNAVFHNGTHSTSFESQILGPKALPIFTPPPRKYPGFTPGNVGQQFGGPDFPRNQVYTKSTPLPRVRTKPPWVYTTTHPPLVQNRAMTTTMSKSAKKGNSKNLDDDILLSNETIQMSEAALRRNHDGHNNDICWETIIGQEIVKLVTMDLIFTILSILVIDLFRGLWIKYCSSWWCWDIETTFPEYGEFKVAENVLHIINNQGMIWLGLFFAPLLPAINNIKLIILMYIRGWAVMTCNVPAREIFRASRSSNFYLGILLIWLLLCTLPVGFVIASMSPSRSCGPFARYQHFYTVVTREIEKRVDQTVLSYIRHIASPGVVIPIILFLILIIYFLFSLVRGLREANTDLQAQLVHERTEEKKKIFELAGGKKNKFEKDRDKKRSNDYIPLIEQRRREPWRQYHEMEADHALASDSSEESDINEDEDDERQPLTAYPLRAIETPPETLQVTAFHPSLGSLIENREMEDEESASGDQLPMIHKSVSFQGPSHMQMRQSISTESCSQISRSAIQVATPEEIRALLRPYLEAKYGIPYQHGIKSFPIDVHTPPNNTPSRRSSKYNSFVSLYEHTRDDHKNFVASTIKETDEDPGKSDKKQTSSKDVAPDFMPWPSADEARALREKMKSKTPLMLTKTTVEEKPKGGKSSESEFRPPVPIHRKYNIQTTEEENEEEETDSAPESSKKRFRISVSPTKTIAPASASRAQHKIVSQASSSSSIPHGRQPDPNKKASLVLPPLRAPRVQFDEDDSPRQID
modifications: N-linked glycan at N209
In the case of B2, in “cryo-EM structure”, the “stoichiometry N” value stood at 2.

The values above are taken from publication doi:10.1101/2022.05.06.490478 (bioRxiv, 2022).
